The source of these data is the DeepSol protein solubility set.

The nature of the data set: soluble on expression in E. coli; label from the status in PepcDB or PDB records.
For “MGSDKIHHHHHHMFCKVMKIGISCHHTYGGSGAVATELGKALAMKGHTVHFFSQAAPFRLGLYSRNIYCHEIEAMNYPLFETPYHSLALASKIAEVAFYEKLDVVHAHYAIPHAISAMLARQMLEEKCPAAECFRIVTTLHGTDITIVGADRSMSDAVRLAINKSDGVTAVSGYLRDETIRMFTPRKKIEVIHNFVDTAVFKRLPGRRDLLGLDGGKVVIHISNFRPVKRIMDVLAVFESIRREIPATLLLVGDGPDRSEAETWVRNYGIGDRVRFLGKLDDIVPLLSIADLMLMPSNVESFGLAALEAMACGVPVVVTDAGGFPEFVRQGVDGFRHPHGDIEGMSRSALSILRDDEVWQRFSGAAANQAGRFKTALKVKEYEAFYRRLIDEARERKAQ”, the “soluble on expression in E. coli” value is “not soluble”.

Turning to “MSLPNIDSLFVTRLYRAALSEHGPAIDAKEMEASCYSIAEDDEAGQGWCDENGYPGYTSYASLSDLPWRFPIFADLVKVLDAHVAAFAEDLEFDLDGKELKLEDIWINILPEGGMHASHIHPHSVISGTTYVAMPEGTSALKLEDPRSARMMASPVRRKDARQELRTFIYAKPVVGDVLLWESWLRHEVPMNMSEEDRISVSFNYSWGEGHHHHHH”, the “soluble on expression in E. coli” value was “soluble”.

For “MAVLSFSFGGEITLKKPPESLKKYYPPASEKFEFLNNMHTMSTAFYAVQLNINDENWEKAKEWAQKLVKTYRETAEMVPEWKDYFDFSKADAYLNAVSSKNVDAVIKTARELGQTCAKCHRDNEVAVKIYYHFPDFHSVKVEDPIEFMEMDLGDFMKKLANSLKATNIYISQGEYEKAKEHGINFVERARAVKETCTKCHTKEAEVEAITGKEYDQALKALENLFNAEKLDTQKVAQNMKKVTVTCYTCHNVHLIPAKIKEALAK”, the “soluble on expression in E. coli” value is recorded as “not soluble”.

In the case of “GPLGSEVKKKKNKKKNKKVNGLPPEIAAVPELAKYWAQRYRLFSRFDDGIKLDREGWFSVTPEKIAEHIAGRVSQSFKCDVVVDAFCGVGGNTIQFALTGMRVIAIDIDPVKIALARNNAEVYGIADKIEFICGDFLLLASFLKADVVFLSPPWGGPDYATAETFDIRTMMSPDGFEIFRLSKKITNNIVYFLPRNADIDQVASLAGPGGQVEIEQNFLNNKLKTITAYFGDLIRRPASET”, the “soluble on expression in E. coli” value is “soluble”.

Consider “SLQKFKWSNIYCKEADCVRILLVADPQILGKTFDTHFYAGLANYDSDRYLAWYYEQAVEHVQPDVIIFLGDLMDEGTDSTEMHFEEYYTRFGAIFPTHPTARSIYIPGDNDIGGEGRQPLNPIAKRRFRQYFSERPAWVINDNLTIYNINRITLEMTLNDPRMVDSTGSDVSDRYLRIFVSHMPVLDVPSSFTYTAIHNLKPNVIFSAHLHVSQFARIHRSRLKTVQYKPLSQDKRTAYKVHSFDLSYHQDTQELLEIIVPTCSYRMSVPDIGYGYAAIDGTTLKYTVLWTTRRFYQLISYV”, for which the “soluble on expression in E. coli” value is recorded as “not soluble”.

As to “MKLSQVVVSAVAFTGLVSAANSSNSSSSKNAAQPIAGLNNGKVAGAAGVALAGALAFLI”, the “soluble on expression in E. coli” value is recorded as “soluble”.

With “MNILNIKEGQHYIAKIESHSFVDGEGVRCSVYVSGCPFQCKGCYNVKAQNFKYGEPFELEMLEEILDYCAPSYIEGLSILGGEPFCNLFITLQLVEAFRQRFGHTKTIWVWTGFLFEYLKQQDDARKSLLEHIDVLVDGMFIQHLYRPNLPYKGSLNQRVIDVQSSLQKEQVIEYLTKLEHHHHHH”, the “soluble on expression in E. coli” value is given as “not soluble”.

As for “MSLNEESYLVNRGKGVVRYDVVQVPSNSPIEDDHAEKIVEVPASTSAANEGQSSSDWMFWAVFDGHSGWTTSAKLRNVLISYVARELNATYKSASSDPSLVLPSSEAVDAAIKQGFVRLDNDIVHGSVNQVFKSNSRRAAAELLAPALSGSCALLAFYDSQTRDLKVACAGDSRAVLGRRSENGKWTATPLSEDQTGGTPSEMKRLREEHPGEPNVVRNGRILGQLEPSRSFGDAFYKWSKETQEKIKRQFFGRTPHPLLKTPPYVTAEPIITTTKVDPSQGDFLVLATDGLWEMLSNEEVVGLVGQWIEEQKAAAGAGTGNKSWVRSLFGSQPTEGHHHHHH”, the “soluble on expression in E. coli” value was “soluble”.

Consider “MVEEAERIALISHTAPDGDSVGSSIGFAAMLREKGKSHISVIVPDDIPQYLYCIPGANKVIVHETHPSEAEKALAEADLVFCMDFNAPHRVAGLQSALESSSAPKVLIDHHLYPADIFTLSFSYPPLSSTSELVLRLAKAIGMESYLTQDAATALMTGILTDTGVFSYSSSDPDLYLLVADLMRAGADKDTIIRNTFQQNSEGKMRMQGYVLYEKMTLLPEMGVAYFTLSAEELVRFHNRTGDTDGLANLPLDIAGIEAVCFLREDKNQIKLSFRSTGNYPVNTLAENFGGGGHKNAAGGEFQGSLQEATEKLLKIWKDFNPKNYNNKNQQLEHHHHHH”, for which the “soluble on expression in E. coli” value was “soluble”.

As to “METLGVQTNSELREELNRLKEENARLKKELNQHQVIVNNTLDAIFICDNEMRIVQANEATERMLQVDSEDLKKRSVLDFLFSIPKDELNLSVKKFFKKGFLWKEVPIRLDCGATKYIEFLAKRGIGEDFFFVVMRDIS”, the “soluble on expression in E. coli” value is on record as “not soluble”.

Turning to “MTTKKFRMEDVGLSKLKVEKNPKDVKQTEWKSVLPNEVYRVARESGTETPHTGGFNDHFEKGRYVCLCCGSELFNSDAKFWAGCGWPAFSESVGQDANIVRIVDRSHGMHRTEVRCKTCDAHLGHVFNDGPKETTGERYCINSVCMAFEKKD”, the “soluble on expression in E. coli” value is given as “soluble”.

With “MGSDKIHHHHHHMVNSEQALHQHDPAPILQLDKVSKSFGPVNVINQVSIDVRPGRVLALLGENGAGKSTLIKMMSGVYQPDGGQILVDGKPTTLPDTKTAESFGIATIHQELNLVPTMTVAENVMLGRTPRKWGLVNFKHLRRQAQAALDLIGVDVDLNAQVGSLGIARQQMVEIAKALSMNARILILDEPTAALTGREIDQLFKVVDQLKEKGVAMVFISHHLDEIARIGDTVSVLRDGQFIAELPADTDEDELVRLMVGRSIENQYPRSAPEIGQPLLEVKNLNAEGRFTDISLTVRAGEVVGLAGLVGAGRTEVVRSIAGVDKVDSGEVIVAGKKLRGGDISEAIKNGIGHIPEDRKAQGLVLGSSVEDNLGLATLASTARAGLVDRSGQHKRAAEVAEKLRIRMASLKQPISDLSGGNQQKAVFGRWVLAGSNVLLLDEPTRGVDVGAKVEIYNIINEMTEKGGAVLMVSSELPEVLGMADRILVMSGGRIAGELPAKGTTQDDVMALAVSQVDDSITEEAAAEIENTKEDR”, the “soluble on expression in E. coli” value was “not soluble”.

As for “MSVVDMSAEKMTKLEENLQRAVALKKTVDRWRNFHIHCMWQTTLDQRRNLFAALRMKDTKEQELALSNKQLLVVRQAALHELFEKEYQQYQQELNQMGKAFYEERL”, the “soluble on expression in E. coli” value is given as “not soluble”.

In the case of “MTTRDLTAAYFQQTISANSNVLVYFWAPLCAPCDLFTPTYEASSRKHFDVVHGKVNIETEKDLASIAGVKLLPTLMAFKKGKLVFKQAGIANPAIMDNLVQQLRAYTFKSPAGEGIGPGTKTSS”, the “soluble on expression in E. coli” value is “soluble”.

As to “GPGSMCNRFSCSSCRYVVPIQSRRPLTINHSFLKYNKVVDDDDEKGSSNTVKRGVKEEEEVDGGQVITVRCQNDEKQCDGDRAHYVQIQMRSADEPATTFFKCLKCGFQWKQD”, the “soluble on expression in E. coli” value is reported as “soluble”.

For the sequence “MSEEPAAKRMKNADEFPNLRSEVAGPVKEKLIELDAIQHQLDVMSENAAEEVLKVEQIFNQKRLPIYEKRKKLTTKIDNFWQTAFLNHHLLSTAIPEEQEDLLAALRDLEVQEFEDLRSGFKIIMTFDPNEYFTNEVITKSYHLQSESPSTEITEIEWKENKKPPFKPEDGDSAHTFLEWLTYAALPDSDEIAEVIKDDLYVNPLQYYVMPDMQEVEEDDIEDFLNEERGVDENGQRIPRRNISDSLKVDQDESADGQEGEDEEEEDMGEEEEDGVEEEAEGEEEEEDGAIEEEGGDENVEAHVAVNPENTAE”, the “soluble on expression in E. coli” value is listed as “soluble”.

For “MRRELGMGSEWLGEECEIVMGQSPPSETCNTVGIGIPLLNGPTEFGPHHPSPAQFTTDVRKRAIPGDILFCVRGSTTGRMNWADQEYAIGRGIAAIRHKFKPELQPFVRAVIECYLPELLAQATGSTFPNVSAQQLSNLKWPELAADEQRAIAYILGTLDDKIELNRKQNETLEAMARALFKAWFVDFEPVRAKLEGRWQRGQSLPGLPAHLYDLFPDCLVDSELGEIPEGWEIGSFADVVEIIGGSTPKTSVSEYWGGDIPWFSVVDTPASSDVFVVQTEKSITQSGLNESSARLISKGTTIISARGTVGNLAIAGCDMTFNQSCYALRSKNSLGSYFVFLSAQRMVEQLKAMAHGSVFSTITRQTFEAVQTVLPPENVLQQFERSFASLFDEILNNVNESRTLAKLRDTLLPKLISGELRVNDAKRILARIELDTATQRREQ”, the “soluble on expression in E. coli” value was “soluble”.

Take “MGSSHHHHHHSSGLVPRGSAKSFSSQKAYKIVLAGDAAVGKSSFLMRLCKNEFRENISATLGVDFQMKTLIVDGERTVLQLWDTAGQERFRSIAKSYFRKADGVLLLYDVTCEKSFLNIREWVDMIEDAAHETVPIMLVGNKADIRDTAATEGQKCVPGHFGEKLAMTYGALFCETSAKDGSNIVEAVLHLAREVKKRT”: the “soluble on expression in E. coli” value is on record as “soluble”.

As for “MLESVVAYGIIAGARAITGLRSLWLGTTPIPKQRIYYANHSSHGDFVLLWASLPPEVRRRTRPVAGADYWNKAGLRSYVINKVFNGVLVDRQRSEANANPLEPLDRALDGGDSLIIFPEGTRNLDDEVKLLPFKSGIYHLSLAHPDVELVPVWLANLNRVMPKGRMLPLPLLCTLSFGKPLVATAEEGKEAFLERARMALLDLAPEEEA”, the “soluble on expression in E. coli” value was “not soluble”.

With “MGVVLARGAFRERSMLTLPDFPLPDARGRFGPYGGRYVPETLIPALEELEAAYREAKKDPAFLEELDHYLRQFAGRPTPLYHAKRLSEYWGGAQVFLKREDLLHTGAHKINNTLGQALLARRMGKRRVIAETGAGQHGVSVATVAALFGLECVVYMGEEDVRRQALNVFRMKLLGAEVRPVAAGSRTLKDATNEAIRDWITNVRTTFYILGSVVGPHPYPMMVRDFQSVIGEEVKRQSLELFGRLPDALIAAVGGGSNAIGLFAPFAYLPEGRPKLIGVEAAGEGLSTGRHAASIGAGKRGVLHGSYMYLLYDHDGQITPAHSVSAGLDYPGVGPEHSYYADAGVAEYASVTDEEALEGFKLLARLEGIIPALESAHAIAYAAKVVPEMDKDQVVVINLSGRGDKDVTEVMRLLGGEL”, the “soluble on expression in E. coli” value is listed as “soluble”.

Take “YIQLEGEKFNESARVFTEYLKTKTSDEIPSLLQSYSKSLTISAHLKRDIVDKRLPLVHDLDIKDGKLSNYIVMLDMSVSTADGKQVTVQFVHGVDVYKEAKNI”: the “soluble on expression in E. coli” value was “not soluble”.

In the case of “MGSDKIHHHHHHMVIKNIDAATVAKKFLVRGYNIDPKAAELICKSGLFSDELVDKICRIANGGFIIEKSVVEEFLRNLSNLKPATLTPRPEERKVEEVKASCIALKVIKDITGKSSCQGNVEDFLMYFNSRLEKLSRIIRSRVNTTPIAHAGKVRGNVSVVGMVNEVYERGDKCYIRLEDTTGTITCVATGKNAEVARELLGDEVIGVTGLLKGSSLYANRIVFPDVPINGNGEKKRDFYIVFLSDTHFGSKEFLEKEWEMFVRWLKGEVGGKKSQNLAEKVKYIVIAGDIVDGIGVYPGQEDDLAISDIYGQYEFAASHLDEIPKEIKIIVSPGNHDAVRQAEPQPAFEGEIRSLFPKNVEHVGNPAYVDIEGVKVLIYHGRSIDDIISKIPRLSYDEPQKVMEELLKRRHLSPIYGGRTPLAPEREDYLVIEDVPDILHCGHIHTYGTGFYRGVFMVNSSTWQAQTEFQKKVNLNPMPGNVAVYRPGGEVIRLRFYGE”, the “soluble on expression in E. coli” value is given as “not soluble”.
